Test results published in US20260274985A1 (MYTHIC THERAPEUTICS, published 2026).

T1: Human TROP2 Protein, His Tag (Acro Biosystems) (human, UniProt P09758 27-274)
T1 construct: Bought protein; not shown: His tag
T1 sequence (looked up): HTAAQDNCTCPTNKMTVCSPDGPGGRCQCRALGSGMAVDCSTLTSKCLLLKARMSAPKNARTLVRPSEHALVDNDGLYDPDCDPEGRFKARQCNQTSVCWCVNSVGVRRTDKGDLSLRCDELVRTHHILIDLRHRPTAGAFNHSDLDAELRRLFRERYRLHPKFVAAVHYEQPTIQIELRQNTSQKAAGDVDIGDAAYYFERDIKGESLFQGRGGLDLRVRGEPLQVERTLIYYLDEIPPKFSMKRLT

T2: Human TROP2 Protein, His Tag (Acro Biosystems) (human, UniProt P09758 27-274)
T2 construct: also called TACSTD2; not shown: His tag
T2 sequence (looked up): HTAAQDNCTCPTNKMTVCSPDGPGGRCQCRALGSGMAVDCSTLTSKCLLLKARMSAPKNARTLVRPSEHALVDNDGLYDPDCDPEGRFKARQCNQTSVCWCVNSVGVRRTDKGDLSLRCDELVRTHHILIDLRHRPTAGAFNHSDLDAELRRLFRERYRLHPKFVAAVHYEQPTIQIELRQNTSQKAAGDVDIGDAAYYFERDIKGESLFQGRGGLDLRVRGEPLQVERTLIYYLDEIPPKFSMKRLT


Columns and labels:
[1] = target: T1, Human TROP2 Protein, His Tag (Acro …); assay: BLI (Octet)
[2] = target: T2, Human TROP2 Protein, His Tag (Acro …); assay: BLI (Octet) [1/2]

| binding result [1] | binding result [2] | Binder |
| --- | --- | --- |
| binds | – | MYT11622 (antibody, V domains shown, Sacituzumab variant, His at LCV position 53 (L2 04)) VH: QVQLQQSGSELKKPGASVKVSCKASGYTFTNYGMNWVKQAPGQGLKWMGWINTYTGEPTYTDDFKGRFAFSLDTSVSTAYLQISSLKADDTAVYFCARGGFGSSYWYFDVWGQGSLVTVSS VL: DIQLTQSPSSLSASVGDRVSITCKASQDVSIAVAWYQQKPGKAPKLLIYSASHRYTGVPDRFSGSGSGTDFTLTISSLQPEDFAVYYCQQHYITPLTFGAGTKVEIK |
| – | binds | MYT13375 (antibody, V domains shown, Sacituzumab HC-LC pairing variant) VH: QVQLQQSGSELKKPGASVKVSCKASGYTFTNYHMNWVKQAPGQGLKWMGWINTYTGEPTYTDDFKGRFAFSLDTSVSTAYLQISSLKADDTAVYFCARGGFGSSYWYFDVWGQGSLVTVSS VL: DIQLTQSPSSLSASVGDRVSITCKASQDVHIAVAWYQQKPGKAPKLLIYSHSYRYTGVPDRFSGSGSGTDFTLTISSLQPEDFAVYYCQQHYITPLTFGAGTKVEIK |
| – | binds | MYT13367 (antibody, V domains shown, Sacituzumab HC-LC pairing variant) VH: QVQLQQSGSELKKPGASVKVSCKASGYTFTNYHMNWVKQAPGQGLKWMGWINTYTGEPTYTDDFKGRFAFSLDTSVSTAYLQISSLKADDTAVYFCARGGFGSSYWYFDVWGQGSLVTVSS VL: DIQLTQSPSSLSASVGDRVSITCKASQDVHIAHAWYQQKPGKAPKLLIYSASYRYTGVPDRFSGSGSGTDFTLTISSLQPEDFAVYYCQQHYITPLTFGAGTKVEIK |
| binds | – | MYT11631 (antibody, V domains shown, Sacituzumab variant, His at LCV position 94 (L3 06)) VH: QVQLQQSGSELKKPGASVKVSCKASGYTFTNYGMNWVKQAPGQGLKWMGWINTYTGEPTYTDDFKGRFAFSLDTSVSTAYLQISSLKADDTAVYFCARGGFGSSYWYFDVWGQGSLVTVSS VL: DIQLTQSPSSLSASVGDRVSITCKASQDVSIAVAWYQQKPGKAPKLLIYSASYRYTGVPDRFSGSGSGTDFTLTISSLQPEDFAVYYCQQHYIHPLTFGAGTKVEIK |
| binds | – | MYT11626 (antibody, V domains shown, Sacituzumab variant, His at LCV position 89 (L3 01)) VH: QVQLQQSGSELKKPGASVKVSCKASGYTFTNYGMNWVKQAPGQGLKWMGWINTYTGEPTYTDDFKGRFAFSLDTSVSTAYLQISSLKADDTAVYFCARGGFGSSYWYFDVWGQGSLVTVSS VL: DIQLTQSPSSLSASVGDRVSITCKASQDVSIAVAWYQQKPGKAPKLLIYSASYRYTGVPDRFSGSGSGTDFTLTISSLQPEDFAVYYCHQHYITPLTFGAGTKVEIK |
| binds | – | MYT11629 (antibody, V domains shown, Sacituzumab variant, His at LCV position 92 (L3 04)) VH: QVQLQQSGSELKKPGASVKVSCKASGYTFTNYGMNWVKQAPGQGLKWMGWINTYTGEPTYTDDFKGRFAFSLDTSVSTAYLQISSLKADDTAVYFCARGGFGSSYWYFDVWGQGSLVTVSS VL: DIQLTQSPSSLSASVGDRVSITCKASQDVSIAVAWYQQKPGKAPKLLIYSASYRYTGVPDRFSGSGSGTDFTLTISSLQPEDFAVYYCQQHHITPLTFGAGTKVEIK |
| binds | – | MYT11627 (antibody, V domains shown, Sacituzumab variant, His at LCV position 90 (L3 02)) VH: QVQLQQSGSELKKPGASVKVSCKASGYTFTNYGMNWVKQAPGQGLKWMGWINTYTGEPTYTDDFKGRFAFSLDTSVSTAYLQISSLKADDTAVYFCARGGFGSSYWYFDVWGQGSLVTVSS VL: DIQLTQSPSSLSASVGDRVSITCKASQDVSIAVAWYQQKPGKAPKLLIYSASYRYTGVPDRFSGSGSGTDFTLTISSLQPEDFAVYYCQHHYITPLTFGAGTKVEIK |
| binds | – | MYT11625 (antibody, V domains shown, Sacituzumab variant, His at LCV position 56 (L2 07)) VH: QVQLQQSGSELKKPGASVKVSCKASGYTFTNYGMNWVKQAPGQGLKWMGWINTYTGEPTYTDDFKGRFAFSLDTSVSTAYLQISSLKADDTAVYFCARGGFGSSYWYFDVWGQGSLVTVSS VL: DIQLTQSPSSLSASVGDRVSITCKASQDVSIAVAWYQQKPGKAPKLLIYSASYRYHGVPDRFSGSGSGTDFTLTISSLQPEDFAVYYCQQHYITPLTFGAGTKVEIK |
| binds | – | MYT11628 (antibody, V domains shown, Sacituzumab variant, Ala at LCV position 91 (L3 03; His in the parent)) VH: QVQLQQSGSELKKPGASVKVSCKASGYTFTNYGMNWVKQAPGQGLKWMGWINTYTGEPTYTDDFKGRFAFSLDTSVSTAYLQISSLKADDTAVYFCARGGFGSSYWYFDVWGQGSLVTVSS VL: DIQLTQSPSSLSASVGDRVSITCKASQDVSIAVAWYQQKPGKAPKLLIYSASYRYTGVPDRFSGSGSGTDFTLTISSLQPEDFAVYYCQQAYITPLTFGAGTKVEIK |
| binds | – | MYT11630 (antibody, V domains shown, Sacituzumab variant, His at LCV position 93 (L3 05)) VH: QVQLQQSGSELKKPGASVKVSCKASGYTFTNYGMNWVKQAPGQGLKWMGWINTYTGEPTYTDDFKGRFAFSLDTSVSTAYLQISSLKADDTAVYFCARGGFGSSYWYFDVWGQGSLVTVSS VL: DIQLTQSPSSLSASVGDRVSITCKASQDVSIAVAWYQQKPGKAPKLLIYSASYRYTGVPDRFSGSGSGTDFTLTISSLQPEDFAVYYCQQHYHTPLTFGAGTKVEIK |
| binds | – | MYT11634 (antibody, V domains shown, Sacituzumab variant, His at LCV position 97 (L3 09)) VH: QVQLQQSGSELKKPGASVKVSCKASGYTFTNYGMNWVKQAPGQGLKWMGWINTYTGEPTYTDDFKGRFAFSLDTSVSTAYLQISSLKADDTAVYFCARGGFGSSYWYFDVWGQGSLVTVSS VL: DIQLTQSPSSLSASVGDRVSITCKASQDVSIAVAWYQQKPGKAPKLLIYSASYRYTGVPDRFSGSGSGTDFTLTISSLQPEDFAVYYCQQHYITPLHFGAGTKVEIK |
| binds | – | MYT11623 (antibody, V domains shown, Sacituzumab variant, His at LCV position 54 (L2 05)) VH: QVQLQQSGSELKKPGASVKVSCKASGYTFTNYGMNWVKQAPGQGLKWMGWINTYTGEPTYTDDFKGRFAFSLDTSVSTAYLQISSLKADDTAVYFCARGGFGSSYWYFDVWGQGSLVTVSS VL: DIQLTQSPSSLSASVGDRVSITCKASQDVSIAVAWYQQKPGKAPKLLIYSASYHYTGVPDRFSGSGSGTDFTLTISSLQPEDFAVYYCQQHYITPLTFGAGTKVEIK |
| binds | – | MYT11632 (antibody, V domains shown, Sacituzumab variant, His at LCV position 95 (L3 07)) VH: QVQLQQSGSELKKPGASVKVSCKASGYTFTNYGMNWVKQAPGQGLKWMGWINTYTGEPTYTDDFKGRFAFSLDTSVSTAYLQISSLKADDTAVYFCARGGFGSSYWYFDVWGQGSLVTVSS VL: DIQLTQSPSSLSASVGDRVSITCKASQDVSIAVAWYQQKPGKAPKLLIYSASYRYTGVPDRFSGSGSGTDFTLTISSLQPEDFAVYYCQQHYITHLTFGAGTKVEIK |
| binds | – | MYT11633 (antibody, V domains shown, Sacituzumab variant, His at LCV position 96 (L3 08)) VH: QVQLQQSGSELKKPGASVKVSCKASGYTFTNYGMNWVKQAPGQGLKWMGWINTYTGEPTYTDDFKGRFAFSLDTSVSTAYLQISSLKADDTAVYFCARGGFGSSYWYFDVWGQGSLVTVSS VL: DIQLTQSPSSLSASVGDRVSITCKASQDVSIAVAWYQQKPGKAPKLLIYSASYRYTGVPDRFSGSGSGTDFTLTISSLQPEDFAVYYCQQHYITPHTFGAGTKVEIK |
| binds | – | MYT11624 (antibody, V domains shown, Sacituzumab variant, His at LCV position 55 (L2 06)) VH: QVQLQQSGSELKKPGASVKVSCKASGYTFTNYGMNWVKQAPGQGLKWMGWINTYTGEPTYTDDFKGRFAFSLDTSVSTAYLQISSLKADDTAVYFCARGGFGSSYWYFDVWGQGSLVTVSS VL: DIQLTQSPSSLSASVGDRVSITCKASQDVSIAVAWYQQKPGKAPKLLIYSASYRHTGVPDRFSGSGSGTDFTLTISSLQPEDFAVYYCQQHYITPLTFGAGTKVEIK |
